The target in assay [1] is SARS-COV-2 RBD (SARS-COV-2, UniProt P0DTC2 319-539). The experiment in a line: ELISA, RBD coated on plate. For orientation: In an ELISA, binding on a coated surface is turned into a signal by an enzyme label.
Assay [2] deals with SARS-CoV-2 receptor-binding domain (WT RBD; S protein residues 319-539) (SARS-CoV-2, UniProt P0DTC2 319-539). The experiment in a line: BLI (Octet Red), IgG on protein A biosensor, WT RBD in solution, 1:1 fit. In general terms: Biolayer interferometry detects binding as a change in optical thickness at a sensor tip.
Assay [3] has as its target T1, SARS-CoV-2 receptor-binding domain (RBD), S protein residues 319-539 (SARS-CoV-2, UniProt P0DTC2 319-539).
T1 construct: also called WT RBD; SARS-COV-2 RBD
The assay is described as follows: ELISA on coated RBD.

The source of these data is US20240218057A1 (ROCKEFELLER UNIVERSITY, published 2024).

What is called EC50 is the midpoint of the concentration-response curve. Lower therefore signals a more potent agent. For orientation: Kd means the constant that tells how readily two partners part at equilibrium. Low values mean a tighter complex, high ones a looser complex.

B1: C566 (antibody, V domains shown)
VH: QVQLQESGPGLVKSSQTLSLNCSVFGASISSGGYYWTWIRQHPGKGLEWIGYIHYRGTYYNPSLKSRVTMSVDTSKNQFSLKVRSVSAADTAIYYCARAIVVVTLNWFDLWGQGTLVTVSS
VL: NFMLTQPHSVSESPGKTVTISCSGSGGSIASNYVQWYQQRPGSAPTAVIYEDNQRPSGVPDRFSGSIDSSSNSASLTISGLKTEDEADYYCQSYDTSNPVIFGGGTKLTV
Turning to B1, the concentration giving a half-maximal response (EC50) in assay [1] was found to be 5.88 ng/mL.

B2: C573 (antibody, V domains shown)
VH: QVQLQESGPGLVKPSGTLSLTCAVSGGSISTVNWWSWVRQPPGKGLEWIGEIHHSGNTNHNPSLRSRVTISVDKSKNQFSLKLRSVTAADTAVYYCARDGGRPGDAFDLWGQGTMVTVSS
VL: QSALTQPASVSGSPGQSITISCTGTSSDVGGYNYVSWYQQHPGKVPKVMIYDVSNRPSGISNRFSGSKSGNTASLTISGLQAEDEADYYCNSYRSNSTRVFGTGTKVTV
Consider B2, for which the concentration for a half-maximal effect (EC50) in assay [1] was 2.2 ng/mL. This EC50 lies about 2.7-fold lower than the previous one.

B3: C570 (antibody, V domains shown)
VH: QVQLQESGPGLVKPSETLSLTCTVSGASISSYYWSWIRQPPGKGLEWIGYIYYSGSTNYNPSLKSRVTISLDTSKNQFSLQLSSVTAADTAVYYCATYYFDNSGYSYGLDVWGQGTTVTVSS
VL: DIQMTQSPSSLSASVGDRVTIACRASQSISSYLHWYQQQPGKAPKLLIYAVTNLQSGVPSRFSGSGSGTDFTLTISSLQPEDFATYYCQQSYSLPQTFGQGTKVEIK
Regarding B3, in assay [1], a half-maximal response (EC50) required 0.74 ng/mL.

B4: C101 (antibody, V domains shown)
VH: QVQLVESGGGLIQPGGSLRLSCAASGFIVSSNYMSWVRQAPGKGLEWVSVIYSGGSTFYTDSVKGRFTISRDNSKNTLYLQMNSLRAEDTAVYYCVRDYGDFYFDYWGQGTLVTVSS
VL: EIVLTQSPGTLSLSPGERATLSCRASQSVSSSYLAWYQQKPGQAPRLLIYGASSRATGIPDRFSGGGSETDFTLTISRLEPEDCAVYYCQQYGSSPRTFGQGTKVEIK
Take B4: in assay [1], a half-maximal response (EC50) required 1.51 ng/mL.

B5: C044 (antibody, V domains shown)
VH: EVQLVESGGGLVQPGGSLRLSCAASGFTFSSYSMNWVRQAPGKGLEWVSYISSSSSTIYYADSVKGRFTISRDNAKNSLYLQMNSLRDEDTAVYYCAREAHDGALTDYGDYLNWFDPWGQGTLVTVSS
VL: SYELTQPPSVSVAPGKTARITCGGNNIGSKSVHWYQQKPGQAPVLVIYYDSDRPSGIPERFSGSNSGNTATLTISRVEAGDEADYYCQVWDSSSDHLYWVFGGGTKLTVL
For B5, in assay [2], the affinity, expressed as Kd, was 0.189 µM. That is a sub-micromolar value.

B6: C970 (antibody, V domains shown)
VH: QVQLQESGPGLVKPSETLSLTCTVSGDSINKYYWGWIRQPPGKGLEWIGYIYYSGTTNYNPSLKSRVTISVDTSKTQFSLKLSSVTAADTAVYYCARLLSTEWSFNWFDPWGQGTLVTVSS
VL: SYELTQPPSVSVSPGQTASITCSGDTLGDKYACWYQQKPGQSPLLVIYQNNKRPSGIPERFSGSNSGNTATLTISGTQAMDEADYYCQAWDSSTAYVFGTGTKVTVL
In assay [3], B6 showed an EC50 of 3.71 ng/mL.

B7: C572 (antibody, V domains shown)
VH: EVQLVESGGGLIKPGRSLRLSCTASGFTFGDYAMTWFRQAPGKGLEWVGFIRSKAYGGTTGYAASVKYRFTISRDDSKSIAYLQMDSLKTEDTAVYYCTRWDGWSQHDYWGQGTLVTVSS
VL: DIVMTQSPLSLSVTPGEPASISCRSSQSLLHSNGNNYFDWYLQKPGQSPQLLIYLASNRASGVPDRFSGSGSGTDFTLKISRVEAEDVGVYYCMQVLQIPYTFGQGTKLEI
The molecule B7 registered a concentration giving a half-maximal response (EC50) in assay [1] of 2.9 ng/mL.

B8: C580 (antibody, V domains shown)
VH: EVQLVQSGAEVKKAGESLKISCNSSGYSFTNYWIAWVRQVPGKGLEWMGIIYLGDSDTRYSPSFQGRVTISADKSISAAYLHWSSLKASDTAIYYCARGGPPGGVKLELTDFWGQGTLVTVSS
VL: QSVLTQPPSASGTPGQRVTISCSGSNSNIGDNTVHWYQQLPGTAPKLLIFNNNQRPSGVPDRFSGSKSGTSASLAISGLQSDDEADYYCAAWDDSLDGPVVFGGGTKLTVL
For the molecule B8, in assay [1], the half-maximal effective concentration (EC50) was 1.81 ng/mL.

B9: C980 (antibody, V domains shown)
VH: QVQLVQSGAEVKKPGSSVKVSCEASGGTFSSDSINWVRQAPGQGLEWMGRIIPIFGATNYAQKFQGRVTITADKSTDTVYMEVSSLTSEDTAVYYCARGGIAVGGWWFDPWGQGTLVTVSS
VL: EIVMTQSPATLSVSPGERATLSCRASESVSSKLAWYQQKPGQAPRLLIYGASTRATGISARFSGSGSGTDFTLTISSLESEDFAVYYCQQYNHWPPNTFGQGTKLEIK
In assay [3], B9 showed a concentration giving a half-maximal response (EC50) of 4.07 ng/mL.
